Results published in PMC7407159.

Molecular target: T1, histidine tagged full length homo sapiens mitofusin 1 (hsMfn1) (human), Q8IWA4
T1 chain: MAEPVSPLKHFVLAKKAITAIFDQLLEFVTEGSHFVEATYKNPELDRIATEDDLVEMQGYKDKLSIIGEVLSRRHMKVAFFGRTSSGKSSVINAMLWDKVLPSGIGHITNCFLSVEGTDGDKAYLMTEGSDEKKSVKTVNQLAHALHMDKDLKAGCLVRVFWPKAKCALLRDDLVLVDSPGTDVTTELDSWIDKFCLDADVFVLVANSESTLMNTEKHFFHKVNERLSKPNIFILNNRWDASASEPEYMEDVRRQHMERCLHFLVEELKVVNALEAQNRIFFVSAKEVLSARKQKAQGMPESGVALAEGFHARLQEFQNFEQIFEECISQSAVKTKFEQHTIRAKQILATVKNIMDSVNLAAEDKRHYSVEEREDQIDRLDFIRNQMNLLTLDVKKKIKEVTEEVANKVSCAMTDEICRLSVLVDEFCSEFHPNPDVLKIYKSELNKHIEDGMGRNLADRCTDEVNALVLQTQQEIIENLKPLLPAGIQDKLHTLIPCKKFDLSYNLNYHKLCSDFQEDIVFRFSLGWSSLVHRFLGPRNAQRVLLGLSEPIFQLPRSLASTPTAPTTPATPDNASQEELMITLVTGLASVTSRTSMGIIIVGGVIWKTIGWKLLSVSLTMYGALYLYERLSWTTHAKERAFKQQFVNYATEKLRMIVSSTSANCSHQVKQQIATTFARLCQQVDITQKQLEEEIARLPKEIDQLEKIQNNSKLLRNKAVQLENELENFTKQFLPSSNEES
Test: vesicle adhesion (shape of adhered GUV doublets by confocal microscopy), adhesion strength fitted to a cooperative binding model; His-Mfn1 (detergent resistant fraction of Mfn1-IMVs) bound by its histidine tag to POPC/DOGS-NTA GUVs with 10, 15, 20 and 25 mol% DOGS-NTA; 10 mM GDP, 2.5 mM …; 22 °C; Eadh against [NTA] fitted to Equation (6); two-dimensional binding equilibrium constant for planar membranes, Mfn1 with …
Settings: remark: other sources report otherwise

two-dimensional binding equilibrium constant for planar membranes (K2D' of Equation 6, printed as KD') (nm^2 per molecule): 0.1
B1: histidine tagged full length homo sapiens mitofusin 1 (hsMfn1), Q8IWA4 1-741 (natural protein)
chain: MAEPVSPLKHFVLAKKAITAIFDQLLEFVTEGSHFVEATYKNPELDRIATEDDLVEMQGYKDKLSIIGEVLSRRHMKVAFFGRTSSGKSSVINAMLWDKVLPSGIGHITNCFLSVEGTDGDKAYLMTEGSDEKKSVKTVNQLAHALHMDKDLKAGCLVRVFWPKAKCALLRDDLVLVDSPGTDVTTELDSWIDKFCLDADVFVLVANSESTLMNTEKHFFHKVNERLSKPNIFILNNRWDASASEPEYMEDVRRQHMERCLHFLVEELKVVNALEAQNRIFFVSAKEVLSARKQKAQGMPESGVALAEGFHARLQEFQNFEQIFEECISQSAVKTKFEQHTIRAKQILATVKNIMDSVNLAAEDKRHYSVEEREDQIDRLDFIRNQMNLLTLDVKKKIKEVTEEVANKVSCAMTDEICRLSVLVDEFCSEFHPNPDVLKIYKSELNKHIEDGMGRNLADRCTDEVNALVLQTQQEIIENLKPLLPAGIQDKLHTLIPCKKFDLSYNLNYHKLCSDFQEDIVFRFSLGWSSLVHRFLGPRNAQRVLLGLSEPIFQLPRSLASTPTAPTTPATPDNASQEELMITLVTGLASVTSRTSMGIIIVGGVIWKTIGWKLLSVSLTMYGALYLYERLSWTTHAKERAFKQQFVNYATEKLRMIVSSTSANCSHQVKQQIATTFARLCQQVDITQKQLEEEIARLPKEIDQLEKIQNNSKLLRNKAVQLENELENFTKQFLPSSNEES
